Two molecules from patent US20260209387A1, “SINGLE-DOMAIN ANTIBODY FOR INHIBITION OF NEUTROPHIL ELASTASE ACTIVITY” (UNIVERSITE DE LIEGE, priority 2023, published 2026) can be followed below.

For experiment [1], the target named is T1, human neutrophil elastase (human, UniProt P08246 30-247, glycans (NAG-NAG-FUC) at N109 and N204, chymotrypsinogen numbering, seen in the crystal).
T1 sequence: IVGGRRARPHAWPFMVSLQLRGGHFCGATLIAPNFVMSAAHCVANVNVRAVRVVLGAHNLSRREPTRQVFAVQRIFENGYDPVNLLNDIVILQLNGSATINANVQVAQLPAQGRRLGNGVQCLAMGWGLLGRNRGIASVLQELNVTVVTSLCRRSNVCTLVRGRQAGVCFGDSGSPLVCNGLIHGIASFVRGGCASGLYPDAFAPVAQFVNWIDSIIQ
Kind of experiment: cell-based or functional assay.

Experiment [2] concerns the target T2, human proteinase 3 (human, UniProt P24158 28-248).
T2 sequence (looked up): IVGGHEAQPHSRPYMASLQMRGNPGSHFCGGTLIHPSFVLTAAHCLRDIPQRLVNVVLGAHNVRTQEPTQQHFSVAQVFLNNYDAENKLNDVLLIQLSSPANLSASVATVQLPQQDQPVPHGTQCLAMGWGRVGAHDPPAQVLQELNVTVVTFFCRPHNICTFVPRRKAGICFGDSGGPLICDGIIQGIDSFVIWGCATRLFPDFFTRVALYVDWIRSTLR
Kind of experiment: cell-based or functional assay.

In experiment [3] the target is T1, human neutrophil elastase. Kind of experiment: cell-based or functional assay. This is another data set of the same source.
For experiment [4], the target named is T3, mouse neutrophil elastase (mouse, UniProt Q3UP87 29-265, limits assumed).
T3 sequence (looked up): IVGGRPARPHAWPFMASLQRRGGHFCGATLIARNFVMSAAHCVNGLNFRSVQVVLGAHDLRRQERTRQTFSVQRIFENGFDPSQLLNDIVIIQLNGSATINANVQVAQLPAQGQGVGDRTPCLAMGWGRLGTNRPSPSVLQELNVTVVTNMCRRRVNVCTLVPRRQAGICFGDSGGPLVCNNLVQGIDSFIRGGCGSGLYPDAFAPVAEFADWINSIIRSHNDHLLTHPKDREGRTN
Kind of experiment: cell-based or functional assay.

The target of experiment [5] is T3, mouse neutrophil elastase. The experiment in a line: enzymatic assay, substrate MeOSuc-Ala-Ala-Pro-Val-AMC, Morrison equation for tight binders, N=6.
Procedure: The substrate used were Succinyl-Ala-Ala-Ala-paraNitroAnilide (1 mM in 0.1 M Tris pH 7.5 with NaCl 0.5 M and NaN3 0.01%, % w/v from Sigma-Aldrich) for pPE, MeOSuc-Ala-Ala-Pro-Val-AMC (100 μM in Tris 50 mM, NaCl 1 M, 0.05% (% w/v) Brij-35, pH 7.5) for mNE, N-Succinyl-Ala-Ala-Pro-Phe p-nitroanilide (0.45 mM in 100 mM HEPES pH 7.5, from Sigma Aldrich) for hCG and Boc-Ala-Ala-Nva-SBzl (0.22 mM in 100 mM MOPS pH 5.0 0.5 M NaCl, 100 μM DTNB, DMSO 10%, from EPC) for PR3. mNE (rmELA2 from R&D systems, United Kingdom) was first activated according to the supplier information. In brief, mNE was incubated with recombinant mouse active cathepsin C/DPPIy (rmCathepsin C from R&D systems) in MES 50 mM, NaCl 50 mM, pH 5.5 for 2 h at 37° C. […] The hydrolysis of the substrate and the determination of the residual activity were carried out as explained above for the inhibition of hNE.
The target of experiment [6] is T1, human neutrophil elastase. The experiment in a line: enzymatic assay, substrate N-Succinyl-Ala-Ala-Ala-pNA, Morrison equation for tight binders, N=3.
Procedure: Inhibition of the hydrolysis of a chromogenic substrate. […] Briefly, hNE (Elastin products company, EPC, United States) was resuspended at 1 mg·mL⁻¹ in 50 mM sodium acetate buffer pH 5 containing 100 mM NaCl and stored at 4° C. The substrate Succinyl-Ala-Ala-Ala-paraNitroAnilide was dissolved at 1 mM in 0.1 M Tris pH 7.5 with NaCl 0.5 M and NaN3 0.01% (% w/v) and stored at 4° C. 230 μl of substrate (1 mM) were mixed with 10 μl of Bovine Serum Albumin 9 μM (BSA, Sigma-Aldrich, Germany) and incubated 20 min at 25° C. in a clear flat bottom 96-well plate (Greiner Bio-One, Belgium). […] Immediately after, the hNE was added to the mix at a final concentration of 50 nM. […] The initial velocity determined in the presence of the ISVD at different Nb: hNE ratios was compared to that measured in the absence of the ISVD, to determine the residual activity. The delay between the addition of hNE and the first measurement was about 100 seconds. […] In some experiments, the ISVD was preincubated for 15 minutes with the hNE and the complex was added to the substrate.
The Kᵢ was calculated averaging three Kᵢ of three independent curves, each curve representing experiment carried out with a different lot of production of the Nb.
The target in experiment [7] is T1, human neutrophil elastase. Kind of experiment: BLI, comparison of the values in Table 2. A general note: BLI is a label-free optical method that tracks binding on a fibre tip over time.
The target in experiment [8] is T4, porcine pancreatic elastase (pig, UniProt P00772 27-266).
T4 construct: also called pPE; PPE
The experiment in a line: BLI, biotinylated NbE201 on streptavidin sensors, protease in solution. How it is done: (§1) The biosensors were then immersed in a 50 nM solution of a serine protease. The proteases tested were human cathepsin G (hCG), human proteinase 3 (hPR3), mouse pancreatic elastase (mPE), mouse neutrophil elastase (mNE) and porcine pancreatic elastase (pPE). hNE was used a positive control. The association and dissociation were measured for 70 s and 320 s respectively, in kinetic buffer (KB, Sartorius). The experiments were carried out at 30° C. in 384-wells black-bottom microplates in polypropylene (Greiner Bio-One, Belgium) and with orbital agitation (1000 rpm).

Experiment [9] has as its target T5, human cathepsin G (human, UniProt P08311 21-244).
T5 construct: also called hCG; CG
T5 sequence (looked up): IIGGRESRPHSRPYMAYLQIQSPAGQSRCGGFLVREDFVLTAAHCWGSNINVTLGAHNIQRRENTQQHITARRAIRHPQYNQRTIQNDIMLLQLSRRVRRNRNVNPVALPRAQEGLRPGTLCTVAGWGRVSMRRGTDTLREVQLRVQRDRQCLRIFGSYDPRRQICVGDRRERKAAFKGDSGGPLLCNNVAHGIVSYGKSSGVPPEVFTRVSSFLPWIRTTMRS
The experiment is described as above. How it is done:
as §1

Experiment [10] addresses T2, human proteinase 3. The experiment is described as above. As for the experimental part: as §1
Experiment [11] concerns the target T3, mouse neutrophil elastase. Kind of experiment: BLI (Octet HTX), NbE201_Cter Biot on streptavidin sensor, mNE as analyte, 1:1 fit, N=1. How it is done:
FIG. 9. […] On the x-axis, the time in seconds. On the y-axis, the interference signal in nm. The dashed line separates the association step from the dissociation step. In black, the experimental signal. In grey, the fitting using a 1:1 model. The mNE concentrations tested are 100-50-25-12.5-6.25-3.125 nM, from top to bottom. Association and dissociation kinetics were measured for 300 s and 600 s respectively. The obtained sensorgrams were fitted to a 1:1 model by using the Data Analysis Octet Software Version 10.0 (Sartorius) to derive the rate constants for association (kₒₙ) and dissociation (koff) and the equilibrium dissociation constant (KD=koff/kₒₙ).
(§2) Then, the biosensors were immersed in a solution of hNE at different concentrations ([…]-0.753 nM). Association and dissociation kinetics were measured for 180 s and 300 s respectively, in 10×KB buffer. All the experiments were carried out at 30° C. in 96-wells or 384-wells black-bottom microplates in polypropylene (Greiner Bio-One, Belgium) and with orbital agitation (1500 rpm). The sensorgrams obtained were fitted globally to a 1:1 model to derive the rate constants for association (kₒₙ) and dissociation (koff) and the equilibrium dissociation constant (KD=koff/kₒₙ). […] were carried out. The error on KD was calculated using the following equation: […]

Experiment [12] concerns the target T1, human neutrophil elastase. The experiment in a line: BLI (Octet HTX), biotinylated NbE201 on streptavidin sensor, hNE as analyte, global 1:1 fit, N=2. As for the experimental part: FIG. 6. […] On the x-axis, the time in seconds. On the y-axis, the interference signal in nm. A vertical dashed line divides the association step from the dissociation step. […] Each curve (in black) represents measured data (□□) referring to a single concentration of hNE used: 25 nM, 6.25 nM, 3.125 nM, 1.563 nM and 0.753 nM (from top to bottom). In grey, is represented the fitting of the data from which the KD value and kinetic parameters were derived. Data were fitted accordingly to a 1:1 ligand model by using the Data Analysis Octet Software Version 10.0 (Satorius). Independent replicates of the experiment were done (N=2) and the mean (±st. dev.) of the kinetics parameters measured and indicated in Table 2.
as §2

T4 sequence (P00772 27-266): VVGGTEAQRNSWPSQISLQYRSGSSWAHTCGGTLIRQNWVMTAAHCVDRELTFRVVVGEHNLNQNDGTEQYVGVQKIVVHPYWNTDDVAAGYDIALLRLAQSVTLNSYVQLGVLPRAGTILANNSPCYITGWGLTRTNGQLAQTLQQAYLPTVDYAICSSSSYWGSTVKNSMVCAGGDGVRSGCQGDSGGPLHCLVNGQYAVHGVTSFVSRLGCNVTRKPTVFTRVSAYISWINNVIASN

B1: NbE201 (VHH)
VHH: QVQLQESGGGLVQAGGSLRLSCVVPGRTISLYRMGWFRQAPGKEREFVAGINWSGDMTDYVDSVKGRFTISRDNAKNTVYLEMNSLKPEDTAIYYCTADPKLLPLADSSYGYWGQGTQVTVSS
notes: Llama VHH made in the periplasm of E. coli WK6 (pHEN6 vector) and purified by IMAC; This form was used in the enzymatic assays and for crystallisation; also called NbE201 wt; NbE201-WT
For the molecule B1, in [1], the “IC50, inhibition of elastin hydrolysis by hNE (132 nM)” value is 488 nM; the “fold inhibitory activity relative to mNE” value was around 10 fold; the “molar ratio inhibitor:hNE for total elastase inhibition in vitro” value was 3 NbE201:hNE molar ratio. Further, the “inhibition of protease activity at NbE201:enzyme ratio of 60” value in [2] worked out at 20%. For the same molecule, the “IC50, inhibition of hydrolysis of N-Succinyl-Ala-Ala-Ala-paraNitroAnilide by hNE (50 nM)” value in experiment [3] stood at 38.3 nM. Further, the “IC50, inhibition of hydrolysis of MeOSuc-Ala-Ala-Pro-Val-AMC by mNE (14.7 nM)” value in [4] is 49.4 nM. Also, the Ki (commonly the dissociation constant of the complex between target and ligand, obtained from inhibition or displacement) in [5] amounted to 38.8 nM. The Ki in experiment [6] amounted to 4.1 nM.

B2: biotinylated NbE201 (VHH)
VHH: QVQLQESGGGLVQAGGSLRLSCVVPGRTISLYRMGWFRQAPGKEREFVAGINWSGDMTDYVDSVKGRFTISRDNAKNTVYLEMNSLKPEDTAIYYCTADPKLLPLADSSYGYWGQGTQVTVSS
modifications: C-terminal Cys biotinylated with EZ-Link Maleimide-PEG2-Biotin
notes: Form immobilised on streptavidin sensors in all BLI experiments; It was produced in the pHEN25 vector and biotinylated site-specifically on its C-terminal Cys; also called NbE201_Cter Biot; biotinylated ISVD NbE201
With B2, the “fold affinity relative to mNE” value in [7] was around 10 fold. Further, the binding result in [8], in experiment [9] and in experiment [10] was “no binding (tested: 50 nM)” in each case. Further, the results for the dissociation constant Kd in experiment [11] and in [12] were 49 nM and 1.3 nM, respectively. Moreover, the koff (as a rule, the rate constant with which the complex falls apart) in [11] turned out to be 0.019 s⁻¹; in [12], 0.0032 s⁻¹. Besides, the kon (in general, the rate constant with which the complex forms) amounted to 390000 M⁻¹ s⁻¹ in experiment [11] and 2.6e+06 M⁻¹ s⁻¹ in experiment [12].
